Experimental data from patent publication US20240226039A1, “IMMUNE CHECKPOINT INHIBITOR AND HDAC INHIBITOR COMBINATION THERAPY STRATEGY” (H. Lee Moffitt Cancer Center and Research Institute, Inc., priority 2021, published 2024).

Legend:
[1] = system: metastatic NSCLC (mNSCLC); assay: Phase II randomized trial, best response / ORR; type: in vivo, human
Description: (§1) Key exclusion criteria: Untreated, progressive, or symptomatic brain metastases, Active uncontrolled autoimmune disorders, and Systemic steroid use equivalent to >10 mg prednisone. […] The primary endpoint was overall response rate (ORR). Additional endpoints included correlative analyses, DOR, PFS and OS. The trial used a Simon Mini-Max two-stage design with interim analysis planned after the first stage when 23 patients were enrolled in each arm.

[2] = parameters: species or system human; conditions: in vivo
Description: as §1, with “Key inclusion criteria: Histologically confirmed mNSCLCm Treatment naïve, and PD-L1 expression≥1% are eligible. Key” for “Key”

CD8+ T cells = assay: IHC of CD8+ TIL in pre- and on-treatment core biopsies; type: in vivo, human; conditions: biopsy cycle 1 days 15-21; p=0.001 Arm A, p=0.002 Arm B
Description: IHC was performed to determine presence of CD8+ T cells and CD33+ myeloid cells. Biopsies were scored using a 0-3 scale separately in the tumor stroma and tumor beds.

pembrolizumab [Arm A]
2 (8%): Fatigue Total [2]
2: Total irAEs Gr 2 [2]
6 (25%): Best Response: Partial Response ([1]; patients n (%), first-line mNSCLC, p = 0.026 between arms)
2 patients: treatment discontinued due to toxicity, number of patients [2]
4 (17%): irAE Rash/pruritis/dry skin Gr 1 [2]
20: Total AEs Total [2]
3 (13%): Diarrhea Total [2]
58%: disease control rate, interim analysis ([1]; immunotherapy naive patients, p=0.024)
6: Total AEs Gr 2 [2] | Total AEs Gr 3 [2]
significant increase: change from pre-treatment to on-treatment CD8+ TIL scores (CD8+ T cells)
10 (42%): Best Response: Progressive Disease ([1]; patients n (%), first-line mNSCLC)
33.3%: ORR in pts with low pre-treatment tumor bed TIL (score=1) ([1]; in vivo)
5 (21%): irAE Rash/pruritis/dry skin Total [2]
25%: PRs, interim analysis ([1]; immunotherapy naive patients, p=0.026)
0: ALT increased Gr 1 [2] | ALT increased Gr 2 [2] | ALT increased Gr 4 [2] | AST increased Gr 1 [2] | AST increased Gr 2 [2] | AST increased Gr 4 [2] | Alkaline phosphatase increased Gr 1 [2] | Alkaline phosphatase increased Gr 2 [2] | Alkaline phosphatase increased Gr 3 [2] | Alkaline phosphatase increased Gr 4 [2] | Alkaline phosphatase increased Total [2] | Alopecia Gr 1 [2] | Alopecia Gr 2 [2] | Alopecia Gr 3 [2] | Alopecia Gr 4 [2] | Alopecia Total [2] | Anemia Gr 1 [2] | Anemia Gr 2 [2] | Anemia Gr 3 [2] | Anemia Gr 4 [2] | Anemia Total [2] | Anorexia Gr 2 [2] | Anorexia Gr 3 [2] | Anorexia Gr 4 [2] | Arthralgia Gr 1 [2] | Arthralgia Gr 2 [2] | Arthralgia Gr 3 [2] | Arthralgia Gr 4 [2] | Arthralgia Total [2] | Chest pain - cardiac Gr 1 [2] | Chest pain - cardiac Gr 2 [2] | Chest pain - cardiac Gr 4 [2] | Creatinine increased Gr 1 [2] | Creatinine increased Gr 2 [2] | Creatinine increased Gr 3 [2] | Creatinine increased Gr 4 [2] | Creatinine increased Total [2] | Diarrhea Gr 3 [2] | Diarrhea Gr 4 [2] | Dysgeusia Gr 1 [2] | Dysgeusia Gr 2 [2] | Dysgeusia Gr 3 [2] | Dysgeusia Gr 4 [2] | Dysgeusia Total [2] | Fatigue Gr 3 [2] | Fatigue Gr 4 [2] | Heart failure Gr 1 [2] | Heart failure Gr 2 [2] | Heart failure Gr 3 [2] | Heart failure Gr 4 [2] | Heart failure Total [2] | Hyponatremia Gr 1 [2] | Hyponatremia Gr 2 [2] | Hyponatremia Gr 4 [2] | Hypothyroidism Gr 1 [2] | Hypothyroidism Gr 3 [2] | Hypothyroidism Gr 4 [2] | Nausea Gr 1 [2] | Nausea Gr 2 [2] | Nausea Gr 3 [2] | Nausea Gr 4 [2] | Nausea Total [2] | Pain Gr 1 [2] | Pain Gr 2 [2] | Pain Gr 3 [2] | Pain Gr 4 [2] | Pain Total [2] | Pericardial effusion/ tamponade Gr 1 [2] | Pericardial effusion/ tamponade Gr 2 [2] | Pericardial effusion/ tamponade Gr 3 [2] | Pericardial effusion/ tamponade Gr 4 [2] | Pericardial effusion/ tamponade Total [2] | Platelet count decreased Gr 1 [2] | Platelet count decreased Gr 2 [2] | Platelet count decreased Gr 3 [2] | Platelet count decreased Gr 4 [2] | Platelet count decreased Total [2] | Pneumonitis Gr 1 [2] | Pneumonitis Gr 2 [2] | Pneumonitis Gr 4 [2] | Pruritis Gr 2 [2] | Pruritis Gr 3 [2] | Pruritis Gr 4 [2] | QT prolongation Gr 1 [2] | QT prolongation Gr 2 [2] | QT prolongation Gr 3 [2] | QT prolongation Gr 4 [2] | QT prolongation Total [2] | Rash maculo-papular Gr 1 [2] | Rash maculo-papular Gr 2 [2] | Rash maculo-papular Gr 4 [2] | Thromboembolic event Gr 1 [2] | Thromboembolic event Gr 2 [2] | Thromboembolic event Gr 3 [2] | Thromboembolic event Gr 4 [2] | Thromboembolic event Total [2] | Total AEs Gr 4 [2] | Total irAEs Gr 4 [2] | Vomiting Gr 1 [2] | Vomiting Gr 2 [2] | Vomiting Gr 3 [2] | Vomiting Gr 4 [2] | Vomiting Total [2] | irAE AST increased Gr 1 [2] | irAE AST increased Gr 2 [2] | irAE AST increased Gr 3 [2] | irAE AST increased Gr 4 [2] | irAE AST increased Total [2] | irAE Adrenal insufficiency Gr 1 [2] | irAE Adrenal insufficiency Gr 3 [2] | irAE Adrenal insufficiency Gr 4 [2] | irAE Arthralgia Gr 1 [2] | irAE Arthralgia Gr 2 [2] | irAE Arthralgia Gr 3 [2] | irAE Arthralgia Gr 4 [2] | irAE Arthralgia Total [2] | irAE Brachial plexopathy Gr 1 [2] | irAE Brachial plexopathy Gr 2 [2] | irAE Brachial plexopathy Gr 3 [2] | irAE Brachial plexopathy Gr 4 [2] | irAE Brachial plexopathy Total [2] | irAE Colitis Gr 1 [2] | irAE Colitis Gr 3 [2] | irAE Colitis Gr 4 [2] | irAE Hepatitis Gr 1 [2] | irAE Hepatitis Gr 2 [2] | irAE Hepatitis Gr 4 [2] | irAE Hypothyroidism Gr 1 [2] | irAE Hypothyroidism Gr 2 [2] | irAE Hypothyroidism Gr 3 [2] | irAE Hypothyroidism Gr 4 [2] | irAE Hypothyroidism Total [2] | irAE Pancreatic atrophy Gr 1 [2] | irAE Pancreatic atrophy Gr 2 [2] | irAE Pancreatic atrophy Gr 3 [2] | irAE Pancreatic atrophy Gr 4 [2] | irAE Pancreatic atrophy Total [2] | irAE Pericardial effusion Gr 1 [2] | irAE Pericardial effusion Gr 2 [2] | irAE Pericardial effusion Gr 3 [2] | irAE Pericardial effusion Gr 4 [2] | irAE Pericardial effusion Total [2] | irAE Pneumonitis Gr 1 [2] | irAE Pneumonitis Gr 2 [2] | irAE Pneumonitis Gr 4 [2] | irAE Rash/pruritis/dry skin Gr 2 [2] | irAE Rash/pruritis/dry skin Gr 4 [2]
1 (4%): ALT increased Gr 3 [2] | ALT increased Total [2] | AST increased Gr 3 [2] | AST increased Total [2] | Anorexia Gr 1 [2] | Anorexia Total [2] | Chest pain - cardiac Gr 3 [2] | Chest pain - cardiac Total [2] | Diarrhea Gr 2 [2] | Fatigue Gr 1 [2] | Fatigue Gr 2 [2] | Hyponatremia Gr 3 [2] | Hyponatremia Total [2] | Hypothyroidism Gr 2 [2] | Hypothyroidism Total [2] | Pneumonitis Gr 3 [2] | Pneumonitis Total [2] | Rash maculo-papular Gr 3 [2] | Rash maculo-papular Total [2] | irAE Adrenal insufficiency Gr 2 [2] | irAE Adrenal insufficiency Total [2] | irAE Colitis Gr 2 [2] | irAE Colitis Total [2] | irAE Hepatitis Gr 3 [2] | irAE Hepatitis Total [2] | irAE Pneumonitis Gr 3 [2] | irAE Pneumonitis Total [2] | irAE Rash/pruritis/dry skin Gr 3 [2]
3: Total irAEs Gr 3 [2]
8: Total AEs Gr 1 [2]
8%: treatment discontinued due to toxicity, share of patients [2]
4: Total irAEs Gr 1 [2]
14 (58%): Disease Control Rate ([1]; patients n (%), first-line mNSCLC, p = 0.024 between arms)
9: Total irAEs Total [2]
